Measurements as given in the RNAGym collection of RNA variant scans (doi:10.1073/pnas.2313332121).

B1: TPR t1 (parent)
chain: GACCAAUCUGCCCUCAGAGCUCGAGAACAUCUUCGGAUGCAGAGGAGGCAGGCUUCGGUGGCGCGAUAGCGCCAACGUCCUCAACCUCCAAUGCAUCCCACCACAUGAUGAUGCCUGAAGAGCCUUGGUUUUUUG

Variants of: B1
Assay: polymerase ribozyme fitness, log enrichment relative to wild type (log ratio); higher = more active; in vitro selection for triplet polymerase activity
Method in brief: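 PCR was used to build mutant libraries for each subunit of a heterodimeric triplet polymerase ribozyme, which were then transcribed. A single in vitro selection round, in triplicate, used a frozen incubation at −7 °C and recovered extended constructs by gel excision, streptavidin beads and RT-PCR. Fitness is the logarithm of genotype enrichment relative to wild-type enrichment, averaged over replicates with inverse-variance weights. The logarithm is base 2, and after Illumina sequencing only genotypes with ≥10 input reads and ≥1 read per output were kept.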

Variant | polymerase ribozyme fitness (log ratio)
G45A G63C C82U | -0.994
G45U C53U | -2.81
G44U A84U A118G | -2.17
G45C G48C | -2.05
G44A C72A G117A | -2.9
A43G C73G U78A A111G | -3.33
G44A C101A U109A | -5.41
G44A G93U C124G | 0.0379
G44U A84C A91C | -1.65
A43U G44A A68U C70A C115A C124A U125C U132A | -6.95
A43U C123A G128C | -2.79
G45A G48A G51U A83U U126G | -5.24
G45C C56A C98U | -3.15
G45A A50C | -1.09
G45C G48C C53G G107A A121G | -5.84
A43C G63C | -3.41
G44A G51A C104U C115G A121C C124A | -5.73
A43U C123G G127C | -1.59
A43C C56A U59A C72U | -3.55
G44A G60A | -0.624
A43U C104U | -0.812
G44C C53U C86A A95U C101U | -3.19
A43U G110C | -5.24
G45A C73A U133G | -0.489

Variant | polymerase ribozyme fitness (log ratio)
G45C C49U C56G A121C | -0.675
G44U U78C A108G | -4.95
A43G A50U C62A A90G U131A | -5.99
A43G C53A | -2.39
G44A G60U G117C | -5.36
A43U A74C | -1.55
G44A A46G G52A C123A | -1.71
A43U C49U G61A G113C C123U | -3.66
G44A C49U U106C | -2.86
A43G C114U | -1.57
G44C G47C G63C C89U U132A | -4.25
G45A U87G | -0.388
G45C G65U G71A A74G | -5.88
A43U U55A G127A | -3.12
G45A G69U U78C U112C U129A | 0.415
A43C C70A C94U | -6.65
G44A G57C G61A U112C G120A G127A | -1.81
A43C U87C | -1.86
A43U A46G C62G U106A | -5.98
G44C G71A | -1.25
G45C G71A C73U C86A U109A | -6.99
G45A A111C | -0.541
G44U C70A C73U | -2.95
A43G C64U C82G C114U A119G U131A | -1.99

Variant | polymerase ribozyme fitness (log ratio)
G45A A50G G93C | -1.62
G44A C49A C76A U106A | -3.36
G44A C72U G93U C97U U131A | -2.85
A43U G63U U134G | -3.02
G45A C115G G127C | -4.31
G45C U109C | -4.66
G44C C53A C88U A100U | -0.527
A43U G45C C49U G120A | -3.19
A43G G44U A46U U133A | -2.67
A43U G63A A95G G122U | -4.37
G44A A50G C73U C102A C115G | -5.62
G44C C53G C73U C82U C99G C124G | -7.17
G44A C89U C123U C124U | 1.33
A43G G48U C114U | -2.07
G45A G63A U67C C82U A84G U96A C98G C124U | -8.07
A43C C62G G120A | -4.98
G45C C56G C89A | -2.69
G45C C102G A121U U126G G128U | -4.67
G44C U55C | -1.02
A43U G45C C49U G61U G120A | -1.99
G44U G71C | -2.58
A43U A75U U126G | -3.5
G44A C49A C73U U116C | -2.91
A43C C115U | -3.33

Variant | polymerase ribozyme fitness (log ratio)
G44U C94A | -2.53
G44U C94G | -3.91
A43C G117U | -5
G44U G63C C72U A111U | -5.44
G44C C94U | -1.02
G44C C62G U132A | -2.39
G45A C49A | -0.473
A43G G120U | -1.47
A43U C49U U59C C70U C115U | -5.6
G45A C53U | -1.11
G45C C99U | -4.05
G44A C79A | -3.11
G44A G47U U78C G110A | -3.74
A43G A103C A119G A121G G122U G135U | -4.67
A43C U112G | -2.77
G45A G51A C79A | -3.77
A43U U87A G110A | -4.16
G45A A46G A50C C89A | -3.72
G45C G58A | -0.146
G45C A66U C79G C82U | -3.83
G45C C115U | -3.17
G44A C82A | -1.69
G45A G61U U130G | -0.472
G44U A46U C70U | -3.55

Variant | polymerase ribozyme fitness (log ratio)
G44A G122A G128C | -3.84
G44A G61C | -3.11
G45U A105U | -3.16
A43U G63C G117C | -4.52
G44U C73G C102U C124G | -1.03
G45A C70G C85A | -4.9
A43U A46G U96G U112A G128A | -3.6
A43U A50C G77A U126C | -3.5
G44C G61C U78C C98A G113U | -7.8
G44U G63A U78A G117C | -6.55
G44C C49A C101G U112G U131G | -4.71
A43U U96A A121U | 0.867
G45C G51U G71C | -4.44
G44C C76U U81G | -5.45
G44A C56U C72U G120C U129C | -2.55
A43U G77U C88G | -2.17
G45U A46C A91C | -2.71
A43G G69A | -6.04
A43U G60A G120C | -1.01
G45U C49A U59C C97G | -5.1
G45U A83C G93U U116C C123G | -4.31
A43U G48A G71U U112A | -1.51
A43G C49U U59G C114U | -2.13
A43G U78A C88U U109G | -7.02

Variant | polymerase ribozyme fitness (log ratio)
A43U G60A | -1.98
G45A C79A G113U A118G | -7.04
G44A A121C U125G | 0.065
G44U C56U U87C | -1.16
G45A C89U | -1.44
G44C C62A G77A U133A | -4.24
G44C G51U G60U C123U | -2.6
G45C G128C | -4.18
A43G C72A C102U C114G | -4.55
A43G G44U A46U | -2.25
A43G G61U C94G A103U C114G | -5.99
A43U G44A G61C A84C A90U C102U C123U | -4.59
G44C C64U A111G U133A | -0.585
G44A A50G C72A C73U G110A | -4.26
G44U U92A | -3.67
A43U A46U G71U U125A U129A | -4.93
G44U C70A U129A U131A | -3.71
A43G U92C | -3
G44C G71U A108U G110C U125A | -6.18
G44C A74U | -1.2
G44U G71A U130G | -3.31
G44U G61A C99U | -4.01
A43U C115U | -1.87
G44U G120U | -0.505

Variant | polymerase ribozyme fitness (log ratio)
G44A G69U U81A | -0.353
G44A G61U C88G | -2.64
G45A C76U C86G | -3.23
A43G G107A | -6.28
G44A C49U C76G C88G | -3.44
G44U G61U A111U | -3.66
G44A C86A C89U C115G C123A | -2.79
G44U U54A U55C | -2.01
A43G C49A | -2.37
G44U G69U | -0.207
G44C G61C A100C U106A | -4.28
A43G G47C C64U C86G U125G G127C | -3.04
G44A C72G C79A A83U U112G G122A U132C | -6.81
G44U C62A C101G | -4.35
A43U C72U | -1.17
G44U A95C | -2.44
A43C G71U C80U G110A G113U | -7.29
G45U A84C U96A G110A U131A | -3.98
A43U G120A G127A U129C | -3.11
G44C G57U G63U | -2.08
G44U G93U G117A | -3.24
G44U G48A C86U U92A | -4.3
G44C A50G A111U C123A G135U | -5.29
